# From patent CN114935649A (dated 2022)
# T1: HPV6和HPV11的共同抗原表位肽 (SEQ ID NO:1) (HPV6 and HPV11)
# T1 construct: also called 序列1的免疫抗原肽; HPV6和HPV11高免疫原性抗原肽
# T1 peptide: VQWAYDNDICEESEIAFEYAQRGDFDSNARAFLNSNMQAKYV
# Biological target: T1, HPV6和HPV11的共同抗原表位肽 (SEQ ID NO:1)
# Assay: SPR (ProteOn XPR36), antigen amine-coupled to GLC chip, antibody as analyte at 18.75-600 nM
binder,measurement,value
"单克隆抗体7C4c (antibody, V domains shown) VH: EVQLEESATELARPGASVKLSCKASGYIFSGRWQAWIKQRPGQGLEWIGQELMWQAPHILEDSPGGKATLTADKSSSTAYMQLSSLASEDSAVYYCAGSQKWTACWGLGTTLAVSS VL: DIVITQRPALMAASPGEKVTITCSTGYYPINQWCSWYQQKSGISPKPWIYINHDKTNGVPARFSGSGSGTSYSLTITSMEAEDAATYYCHSVQSSSCPFGAGTKLELK",Kd,3.24 nM
